Here are results for 133 substances from the supplement of paper PMC12042874.

± gives the uncertainty stated by the source.

This data set can be described thus: amyloid nucleation score (Sup35N fusion, yeast selection) (log enrichment); library NNK3; higher = more nucleation; inactive = no reads after selection. The essentials: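 Peptides of 20 random codons, each fused to Sup35N, were expressed in psi-negative yeast. Cells were induced with 100 μM copper sulfate for 24 hours and grown 7 days at 30°C on medium lacking adenine and uracil, and plasmid inserts before and after selection were Illumina-sequenced. Nucleation scores are DiMSum log enrichments of output over input reads, centred on the mode score of non-aggregating sequences, and sequences under 100 input reads were excluded.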
VVFYTSGARDRICHMDVHRP had an amyloid nucleation score of 0.113 ± 0.69.

On to VVGNVTGY, for which the amyloid nucleation score result is “inactive”. With VVGSSIK, the amyloid nucleation score result was “inactive”. For the substance VVICILQLHQYFFNYVH, the amyloid nucleation score turned out to be 2.11 ± 0.05. For VVITYSFRVQHV, the amyloid nucleation score result is “inactive”. The entry for VVKFFVWLDVFYVWGLAGII is “inactive”; for VVLIFWWKSQGMSMIVFVIY it is “inactive”; for VVMMFVVIYIYALRRPY it is 0.143 ± 0.25. The figure for VVQRMG is -0.048 ± 1.1; for VVRCLLFVQLGCSKNLVAFQ it is 1.12 ± 0.12. The result for VVRVHIRCTAFYKAPSYWGS reads 0.987 ± 0.11; that for VVSIYVGSYMSIICKS, 1.95 ± 0.059; that for VVVSERVREMRDYNVLLRCT, “inactive”. On to VVYDVTVKKSLDIRFPLRIP, for which the amyloid nucleation score result is “inactive”. The entry for VVYTGTNGRLQDRA is “inactive”; for VWCLFTSLSS it is “inactive”. The entry for VWFGESAFRLVSELCIIKDV is “inactive”; for VWLHNFLVMKLSMRNFGWVR it is “inactive”. The result for VWLSRRIVCFRLLVQLNSA reads “inactive”. Regarding VYCLSHNCMITSDNVRSIIF, the amyloid nucleation score entry was “inactive”. The entry for VYDWRGRVGD is “inactive”. The result for VYFDDRTYRYRVAHIKFSFR reads 2.94 ± 0.076; that for VYGVTSHCTVRRELWAGSIM, “inactive”; that for VYIFLNEEPRVN, “inactive”.

For VYMVTDRGR, the amyloid nucleation score result was “inactive”. VYNGSFWRVNLVNF came in with an amyloid nucleation score of 1.09 ± 0.095. The entry for VYQGMYNKSAYC is “inactive”; for VYQTFYAIV it is “inactive”. The result for VYRCVFWDVCAWCFKFR reads 0.778 ± 0.14; that for VYSLFKVELISILGRMKITK, “inactive”; that for WADIIKMGDVHVVDYYRKER, “inactive”.

WAGLHRVRFES: the amyloid nucleation score was -0.26 ± 0.42.

In the case of WASYDGPEKRRNHTRYYISM, the amyloid nucleation score result is “inactive”. The result for WAYMVNFFRTNLICEGWFDG reads -0.841 ± 2.5; that for WCDDFWLYVVLGYGLCFVLC, “inactive”; that for WCFCFMCSFMTKFFHYLGS, “inactive”.

WCSPQFRLSFYLGISNDHWC returned an amyloid nucleation score of 0.966 ± 0.09. The entry for WDFDVSVIGLMYKFRSVELG is “inactive”; for WDFFIGLLLYSIL it is “inactive”; for WDLGASYLTGMFWVRIVGLE it is “inactive”. Turning to WDLRSCCDNVSTFEL, the amyloid nucleation score result was “inactive”. The entry for WDYKAGISSSLSAIGCLYGD is “inactive”; for WEFLCFFAT it is “inactive”. The result for WFERCLCLLTTRIKYLFSAD reads “inactive”; that for WFVRLLGSAFN, “inactive”.

Substance WFYGRLLPVPVLWIIRLKKG registered an amyloid nucleation score of 0.01 ± 0.59. In the case of WGCALCSYDACRLES, the amyloid nucleation score came out at 2.52 ± 0.068. For the substance WGFVWRVFLLKMC, the amyloid nucleation score entry is “inactive”. The result for WGMTNSETGLVGWSLSKLLG reads “inactive”. The result for WGWGCLCMWYICYSCVYRDR reads 0.708 ± 0.28; that for WHDYTQRGVWAHGTALVWG, “inactive”; that for WHSWAFGTGCGSRTFEG, 0.526 ± 0.17. In the case of WIFMSYWCVDLMPQLLHECW, the amyloid nucleation score entry was “inactive”.

On to WILSNRWKFHLVGLVIAFV, for which the amyloid nucleation score entry was “inactive”.

WIPTPVLCGRPNFYFY: the amyloid nucleation score entry is “inactive”. Substance WIRIIQLNVSERGNRVGSYC registered an amyloid nucleation score of 0.37 ± 0.5.

For the substance WISNTRCVLFVGN, the amyloid nucleation score entry is “inactive”. The result for WIVFMGDASCLSLLTWELFC reads 1.25 ± 0.095. Regarding WKALFSSTSCYTGVG, the amyloid nucleation score entry was “inactive”. The result for WKGMITFGI reads “inactive”. As for WKNNRLNIIYQPLLGTQICK, the amyloid nucleation score entry was “inactive”. The result for WLFLLRPRAGSTHPSTHLDF reads 0.823 ± 0.1. The result for WLGRTATQFNIC reads “inactive”.

For WLHKH, the amyloid nucleation score result is “inactive”. The result for WLKWFLRTCNMVKIFASPFF reads “inactive”. The result for WLLDSRDGMRRKRAPRRVFA reads “inactive”; that for WLQGCRSRWAVVL, “inactive”; that for WLSLFVIMPCLWGFCSMDSN, 1.47 ± 0.11. The entry for WLVAEFQTYPMTQHLYVSMR is “inactive”; for WMHRAYWLSGVCRVLQVTNL it is “inactive”. Regarding WNEAWWNNRLGLARMVVLLG, the amyloid nucleation score entry was “inactive”.

On to WNFIVFGFYLDGRILFISYL, for which the amyloid nucleation score was -0.755 ± 0.7.

Regarding WNLYRFLNW, the amyloid nucleation score result was “inactive”. The result for WNPFGRGWLTLPNMFHKTVI reads “inactive”; that for WPDLQLLSSALPTPLQFSWL, “inactive”; that for WPLRGRSMLQWLSCHIQWAG, “inactive”. The entry for WRFFVVRKNSTSA is “inactive”; for WRNENLPQSGRSMLVIFLLV it is “inactive”; for WRNMTI it is “inactive”. As to WRRLEGSHA, the amyloid nucleation score entry is “inactive”. For the substance WRRWQSRCGSLLRYSKETLN, the amyloid nucleation score entry was “inactive”. The entry for WRSTRIRTSWHTDTDFLSNG is “inactive”; for WRVAYET it is “inactive”; for WRVSFTLS it is “inactive”. The result for WRYVFLVC reads “inactive”. The result for WSETNTFS reads “inactive”. In turn, WSFMYVYVC had an amyloid nucleation score of 1.71 ± 0.06.

WSFRVKTNRDDTEMLLSRSE: the amyloid nucleation score entry is “inactive”. The result for WSMLPLKNTIAKQ reads “inactive”.

On to WSNSCYEC, for which the amyloid nucleation score entry is “inactive”. The entry for WSPGESNTLVGVCIEDALRS is “inactive”; for WSRSACMGEGNLDVFSVWLL it is “inactive”.

Consider WSTPDFRGLHYSTVFITIFA, for which the amyloid nucleation score was found to be 0.194 ± 0.51. Consider WSVQMNRITDSSLDCMMMH, for which the amyloid nucleation score entry is “inactive”. The result for WTDNSVFLTVVINDIRTSTS reads 2.56 ± 0.062. The entry for WTKKFRVMTACLLEWYVDEK is “inactive”. The entry for WTMSLLQFDLDTSTSTLTMV is “inactive”. For WTRVFLRTKGRSEFLLRWPL, the amyloid nucleation score result is “inactive”. The result for WTSHALKISPLNICNQLEHV reads -0.09 ± 0.77; that for WTSHPYWSL, “inactive”; that for WTWTSLSSLMWSV, “inactive”. The result for WTYTKVWIWS reads “inactive”; that for WVDYLYNSLESIRMCWANVY, “inactive”. The result for WVFNGARKGM reads “inactive”; that for WVFRFRNQ, “inactive”; that for WVPLDHVGGA, “inactive”. The substance WVSFCVCWNFNLY registered an amyloid nucleation score of 3.18 ± 0.064. The result for WVSFKDLSELCLGCFRMPRF reads “inactive”. The result for WVSRNTVRGKVMSRCWVVQY reads “inactive”; that for WVWSKL, “inactive”; that for WWPLSLGNNVGPLHCRSRWE, “inactive”. Turning to WYDGQRFCRELYNCPSAPGL, the amyloid nucleation score result is “inactive”. As for WYERGG, the amyloid nucleation score entry is “inactive”.

Take WYGVSACYGWHNVAHSSRTR: the amyloid nucleation score result was “inactive”. For the substance WYRFPCFFLYCDAWMILNFA, the amyloid nucleation score entry is “inactive”. The entry for WYRMLFIRSKDSMDKMPIFL is “inactive”. The entry for WYSCAKMANIHIVSVVTTST is “inactive”; for WYSNYCMIDRHGVFEVVSCM it is “inactive”. For WYSRLRLEQMRKWCHRVL, the amyloid nucleation score entry is “inactive”. The result for YACETVMSFVYMITFIRYLR reads “inactive”; that for YACRVGVWKRVRVWNSGVSL, “inactive”; that for YAFIL, “inactive”. The entry for YAHLAL is “inactive”; for YALVVR it is “inactive”; for YARYMYYATNKINNWVVLKP it is “inactive”. As for YASVEIFHWTFSGILYSWGH, the amyloid nucleation score entry is “inactive”. Regarding YASWKLRTN, the amyloid nucleation score entry is “inactive”.

For YCETLTRY, the amyloid nucleation score entry was “inactive”. Consider YCFSFAISCNDMRLFFLVNV, for which the amyloid nucleation score entry is “inactive”.

YCSCMLTGNMGRSH: the amyloid nucleation score is -0.032 ± 0.33.

Regarding YCSYQNR, the amyloid nucleation score entry is “inactive”.

Consider YDELY, for which the amyloid nucleation score result is “inactive”. YDKWSRSMYVKLCLGAALSW: the amyloid nucleation score entry is “inactive”.
